# Measurements as given in paper PMC10499821.
# Target: Nsp5 (SARS-CoV-2) (UniProt P0DTD1)
# Assay: fluorescence polarisation
row,Binder,Kd
1,GASSRLQASLSSSDV [SHROOM2_(403–417)],280 µM
2,TVKFHARTGMIESNR [DLG3_(577–592)],7 µM
